The DeepSol protein solubility set

Test: soluble on expression in E. coli; label from the status in PepcDB or PDB records

Q: With “MKRIGVLTSGGDSPGMNAAIRAVVRKAIFHDIEVYGIYHGYAGLISGHIEKLELGSVGDIIHRGGTKLYTARCPEFKDPEVRLKGIEQLKKHGIEGLVVIGGDGSYQGAKKLTEQGFPCVGVPGTIDNDIPGTDFTIGFDTALNTVIDAIDKIRDTATSHERTYVIEVMGRHAGDIALWAGLADGAETILIPEEEYDMEDVIARLKRGSERGKKHSIIVVAEGVGSAIDIGKHIEEATNFDTRVTVLGHVQRGGSPSAQDRVLASRLGARAVELLIAGKGGRCVGIQDNKLVDHDIIEALAQKHTIDKDMYQLSKELSI” as the sequence, how does the “soluble on expression in E. coli” value read?
A: not soluble

Q: With “MIPGMRATPTESFSFVYSCDLQTNVQVKVAEFEGIFRDVLNPVRRLNQLFAEITVYCNNQQIGYPVCTSFHTPPDSSQLARQKLIQKWNEWLTLPIRYSDLSRDAFLHITIWEHEDDEIVNNSTFSRRLVAQSKLSMFSKRGILKSGVIDVQMNVSTTPDPFVKQPETWKYSDAWGDEIDLLFKQVTRQSRGLVEDVPWLDPFASRRIEMIRAKYKYSSPDRHVFLVLEMAAIRLGPTFYKVVYYEDETKNMRVSTSVNGGVGIVSACTRYCVADPELLLESLAEVKHSAMTRRIRDVEDERHRQVKPNKQAKDRLETIVNLPSSQVLTREQRDLVWKFRHYLRQFPKALNKYLRSVNWVHPQEVKTALALMNDWELIEAEDALELLSSAFTHPAVRAYSVSRLLEAASPEQVLLYLPQLVQALKYEQGQQLPEEGNPVPVVSEEEGKIPSVATTPTEELEGRDMTVVTKKEARKAASGDLATFLIDYALASPKVSNYLYWHLKTEIESTKESKEEHSKMYQNIQDRLMEALVKRPDTRAQVDSLHQQQIFVEDLIILMNEAKARGGRLNESKSAEFRTMLSRAKHMLDLKGVHLPLDPSFRLSSVIPDTASFFKSEMMPAKISFKVLQPNGKADRNIPEEYTVIFKTGDDLRQDQLIQQMVRLIDIILKKGQLDLKLTPYLVLSTGVGQGFVQCIKSKPLRAIQEQYKAHKMDCIREAMKELRPGDGPFGIEPNVIDNYVRSLAGYSVIMYILGLGDRHLDNLLLCENGKLFHVDFGFILGRDPKPMPPPMKLTSEMVQVMGGVKSKQFLEFVQHVDSAYRILRRHSNVLLNLFSLMLDAGIPDIAAEPDKAIFKIEQRLRLDLSDEAATKHIFTQIESSLNAKMAMISDIIHAYKQNLM” as the sequence, how does the “soluble on expression in E. coli” value read?
A: not soluble

Q: Which “soluble on expression in E. coli” value does the source give for “MSELTSNRIRTTAAKLGLPHLAEALNQYVQRADEAKMGYLDFLDLVLAEELAVRDDRRFRNGLRLSKLPHHKTLEDYDFSFQPDLDPRKVKDLATLSFIEDKANVALLGPPGVGKTHIAVALAVAACRAGYSIYFTSLDDMVRHLKAAEDQGRLISKLTSYLRPAVLVVDEVGYQPLERAEANLVFQVISKRYEKGSIILTSNKTFGEWGQVFGDEVLATAILDRLLHHCEVVSINGNSYRLKNRLQAIERDTDVALEHHHHHH” here?
A: soluble

Q: For “MEKIIVRGGKRLNGTVRVEGAKNAVLPIIAAALLASDGKNVLSEVPVLSDVYTINEVLRHLNAEVVFENNQVTIDASKELNIEAPFEYVRKMRASVQVMGPLLARNGRARIALPGGCAIGSRPIDQHLKGFEAMGAKVQVGNGFVEAYVEGELKGAKIYLDFPSVGATENIMSAATLAKGTTILENAAKEPEIVDLANFLNAMGAKVRGAGTGTIRIEGVDKLYGANHSIIPDRIEAGTFMVAAAITGGDILIENAVPEHLRSITAKMEEMGVKIIEENEGVRVIGPDKLKAVDIKTMPHPGFPTDMQSQMMALLLQADGTSMITETVFENRFMHVEEFRRMNADIKIEGRSVIMNGPNSLQGAEVGATDLRAAAALILAGLVSEGYTRVTELKHLDRGYVDFHKKLAALGATIERVNEKVEEVKEQEVSDLHA”, which “soluble on expression in E. coli” value is on record?
A: not soluble

Q: For “MKSHDLKKALCQWTAMLALVVSGAVWAANGVDFSQSPEVSGTQEGAIRMPKEQDRMPLNYVNQPPMIPHSVEGYQVTTNTNRCLQCHGVESYRTTGAPRISPTHFMDSDGKVGAEVAPRRYFCLQCHVPQADTAPIVGNTFTPSKGYGK”, which “soluble on expression in E. coli” value is on record?
A: soluble

Q: Which “soluble on expression in E. coli” value does the source give for “MLSIKGKKWRNWTGNVEGTPHYTMYPESIQDVVEVVGLARKKGKKIRVVGSGHSFTPLVQTEEVLVSLDELKGIVNIDAEKMVAEVWAGTKLYDLGKLLEEKGYAQENLGDIDSQSIAGAISTGTHGTGITFGSLSTQVIEITAVLSNGESIVCSETENVEYWRAFQLSLGMLGIIVKIKLKVIPAYSLVYESEKQSLSTVMNKLEEYKKHRHFEFFVFPYSDEVQVKLTNETTNTGSDLKWHKLKVELLENRMFSLLSKGCKWFPSISKGVSRLSAKAVPNTKIIGPSYEVFATSRTVPFYEMEYSIPSKYMRTVVEEISNLIEKKKYKVHFPIECRYVKGDDIWLSPAYGRDSAYIAVHMYKGMKYAAYFGEVEKIFLKYEGRPHWGKMHTLSYEQLQDIYPEFHSFLQARKSLDELGMFFNPYAEKLFIPLFAGQ” here?
A: not soluble

Q: For “MGSDKIHHHHHHMPIITSYITQDDGTTTVVISGVELGNKETLLLDNGFDVEVDVSVIDPFQITGKQRRKIFALVKDIEEHTGQPMDYMRHMFIEFVRTYYGYDERISLSNCTRTQASQIIEATLDWTFYNDIPLSYKTSNLLKQDKSFLYWSTVNRNCVICGKPHADLAHYEAVGRGMNRNKMNHYDKHVLALCREHHNEQHAIGVKSFDDKYHLHDSWIKVDERLNKMLKGEKKE”, which “soluble on expression in E. coli” value is on record?
A: not soluble

Q: For “NYRSRAAYKLIELDNKYLFLKKNKIILDIGCYPGSWCQVILERTKNYKNKIIGIDKKIMDPIPNVYFIQGEIGKDNMNNIKNINYIDNMNNNSVDYKLKEILQDKKIDIILSDAAVPCIGNKIDDHLNSCELTLSITHFMEQYINIGGTYIVKMYLGSQTNNLKTYLKGMFQLVHTTKPKASRNESREIYLVCKNFLGRKK”, which “soluble on expression in E. coli” value is on record?
A: soluble

Q: Which “soluble on expression in E. coli” value does the source give for “MAHHHHHHMSYLLHSSSYAAATAAAERDGPARGAGGGPLNVVLSRVRSLLHGEPSRVARATSIIDDGSSGSLKRAERHSGASSASRREVLLPLTHDSARVARVPEVSGFIEHGGGFAIPAAKASPRTAPTPVAPPTTNESPVHRPPSARPVDAARDASLYERAVDYTDLEEILRCPLPPVPGCPTPCAFGRHSAGLSSDGSVTAAATLSPPPAPSSARQPPLVFRCIAADSDTGISVYSTPAEDCPMHLMRAYAVLPCSPGDVLQYMDNDIRPRWDSHLRRSALLRELTPPEQTKAVERQYRLSTSIGTAGAAVSQRSPTSLSAQSQGALRQRASSSPRTTGAIHGGCGSAVVSGPATAAASSPTAFQYLPGQRRVAIHYLETRSPVPFVQDRDFEIVVAEEVRPDDTAYVKAFSTPLGYHMPLGPHQSRYVRAVVVLSGMVARPLDAARVEEVLPPVLLRHHRAAAQHGNIQVAGIATKKPSASATVCGDAAARAACVAAPHRYCVVEYVGLVHPMGLLPAVLVNMIISAQLNAMRKMQAFIMQHPMSTLRPRSATHAATGEATGQPLQELLVSLQSLSPSPRKSSRMGKSQESDAAGRTREVKPEATGASAASVSAPLAASPAPVWWRRQMHRFASNL” here?
A: not soluble

Q: With “MAHHHHHHMSSTEEYYKLMEVILHILKKHKRHVECLKILLKLNRRDKIKDLLFECGDMITCKQMALICSRHSIHLEFTQEEVIRYPHMNLNQLASLSSGEHLSSIFLKLAKDLDVEEPKLPEDIYKTHLEEKRNTNVWDSAKQNLSASFVNAFVNAAFCKDKLMTVNSSL” as the sequence, how does the “soluble on expression in E. coli” value read?
A: not soluble

Q: With “SSAKAQVNPAICRYPLGMSGGQIPDEDITASSQWSESTAAKYGRLDSEEGDGAWCPEIPVEPDDLKEFLQIDLHTLHFITLVGTQGRHAGGHGIEFAPMYKINYSRDGTRWISWRNRHGKQVLDGNSNPYDIFLKDLEPPIVARFVRFIPVTDHSMNVCMRVELYGCVWLDGLVSYNAPAGQQFVLPGGSIIYLNDSVYDGAVGYSMTEGLGQLTDGVSGLDDFTQTHEYHVWPGYDYVGWRNESATNGYIEIMFEFDRIRNFTTMKVHCNNMFAKGVKIFKEVQCYFRSEASEWEPNAISFPLVLDDVNPSARFVTVPLHHRMASAIKCQYHFADTWMMFSEITFQSDAAM” as the sequence, how does the “soluble on expression in E. coli” value read?
A: not soluble

Q: With “STPSIVIASAARTAVGSFNGAFANTPAHELGATVISAVLERAGVAAGEVNEVILGQVLPAGEGQNPARQAAMKAGVPQEATAWGMNQLCGSGLRAVALGMQQIATGDASIIVAGGMESMSMAPHCAHLRGGVKMGDFKMIDTMIKDGLTDAFYGYHMGTTAENVAKQWQLSRDEQDAFAVASQNKAEAAQKDGRFKDEIVPFIVKGRKGDITVDADEYIRHGATLDSMAKLRPAFDKEGTVTAGNASGLNDGAAAALLMSEAEASRRGIQPLGRIVSWATVGVDPKVMGTGPIPASRKALERAGWKIGDLDLVEAAEAFAAQACAVNKDLGWDPSIVNVNGGAIAIGHPIGASGARILNTLLFEMKRRGARKGLATLCIGGGMGVAMCIESL” as the sequence, how does the “soluble on expression in E. coli” value read?
A: soluble

Q: For “MEEPQITVGILSGKEIEFSFPESFTTPDGTKVSGAQKAVYQKEKIYWSGKEYDELIFYPQPNAGIFFELKDVTIGINFHWERKEVQRFQGALKIIVEGETLTAINVISIEDYLTSVISSEMSATASLELLKAHAVISRSWLINKLRVENEKWKATIQPDSAANSPHSTLHSQLIKWYDHEAHTHFDVCADDHCQRYQGITRASTPQAIEAVSATRGEVLMYEGKICDARFSKCCGGAMEEFQNCWENVRHPYLTGKRDYIPESHASDSEKQITGPAIQLPDLTQEEEADRWIRTSPDAFCNTQDKKILSQVLNNYDQETTDFYRWKISYSQQELAELIHQRSGIDFGEIIDLIPVERGTSGRLIRLKIVGTLRTLTIGKELEIRRTLSPSHLYSSAFLVDKEKGEEGNVPTRFTLTGAGWGHGVGLCQIGAAVMGERGYYYKDILAHYYPGSRLEKQYE”, which “soluble on expression in E. coli” value is on record?
A: not soluble

Q: For “MMFSLSKELEEYRAKIREYAQKTVREYAKQMDETNDGGDKIVKDLGEMGLLGMKQPTKYGGLGLGEMAFAIATEELGAESGGASHSLHTQQNALQLLVSVGGDSAQEWIEKGIKAKEVYAVALTEPQAGSDLGALQTTAKPDGNELVLNGEKIFTSAASFSTKMVVLARTSGNPGDRQGISLLLIDSKLPGIEIHKLDIMGIRGAGVSYVKFNNVRIPKDSIIGKEGDAYRGALKALMVSRNGYAGIAVGIARGALEEAISRAQSRKQFGKALIEQEWISFNLADAYIKVEAARLLTWRAAQLFDNDYEATTEASMAKYYAAVTATEVTRLALHIFGGHGLNRGSKVERLYRDAKIMEIAEGTNEMQLVAVSRLFQPKK”, which “soluble on expression in E. coli” value is on record?
A: soluble

Q: With “GPEQVLDRASMHLANGLLGNPDSAAGLEVLLGGLKLRFVSGSAVAVTGAEGMVTLDGTELPLNKAVRVPPGAVLELGPAMFGIRYYLAVQGGISAQGEAAQGEAIRAGAALTFGRPNNHGSPEVNHPARRALDPERPVVARVSRGPQAQNDDAGTWLRLTSEPWILSPESDRAGARLVGRPLDVTSAPIPQAQPLVSGSVLLPSSGLPVIALAGHPDTSQSPVIAVVRDEDLDVLGQARPGQMVHLLG” as the sequence, how does the “soluble on expression in E. coli” value read?
A: not soluble

Q: With “MEIKGESMQKSKFRRICVFCGSSQGKKSSYQDAAVDLGNELVSRNIDLVYGGGSIGLMGLVSQAVHDGGRHVIGIIPKTLMPRELTGETVGEVRAVADMHQRKAEMAKHSDAFIALPGGYGTLEELLEVITWAQLGIHDKPVGLLNVDGYYNSLLSFIDKAVEEGFISPTAREIIVSAPTAKELVKKLEEYAPCHERVATKLCWEMERIGYSSEE” as the sequence, how does the “soluble on expression in E. coli” value read?
A: soluble

Q: For “MLLDKIQNLIIQSDISIFQSMKKMDEEKVKLLFVFRGDCFVGILTIGDIQRAIIKQNDTSMQINNILDQNKVFAYKGESLEIIKNKMIHLRAECMPILDSKGELVDVLFWKDLFIDEVRVDDRKIDLPVVIMAGGKGTRLKPLTNVIPKPLIPIGDKTILEAILDQFESIGCSKFYMSVNYKYDILKFYLAQLDHKYDIRFFKEDKPLGTIGSVSLLKDKISTPFFVSNCDIIIDQDYRDVYDYHINNSNDLTIVTAVKRTRIPYGVIETIENGLMTELIEKPEFTYMINSGVYILQPELINEIPENELFHITHLMEKVKSRGGKIGCFPVSEKSWTDIGEWNEYLKLLGILEHHHHHH”, which “soluble on expression in E. coli” value is on record?
A: not soluble
